The results in this text go back to publication PMC9883506, “Self-recycling and partially conservative replication of mycobacterial methylmannose polysaccharides” (Communications Biology, 2023).

The target of data set [1] is T1, MeT1 (Mycolicibacterium hassiacum, UniProt K5B7F3).
T1 construct: full length, C-terminal His6 tag (pET30a), synthetic gene, E. coli BL21(DE3)
Briefly: SahH-coupled DTNB assay of SAH release. Format: biochemical. The conditions noted are these: 100 μM MnCl2, BTP pH 7.5.

Substrate in data set [2]: Nc1nc2c(ncn2[C@@H]2O[C@H](COP(=O)(O)OP(=O)(O)O[C@H]3O[C@H](CO)[C@@H](O)[C@H](O)[C@@H]3O)[C@@H](O)[C@H]2O)c(=O)[nH]1
The data set can be described thus: coupled PK/LDH NADH assay of GDP release. Format: biochemical, Mycolicibacterium hassiacum. Conditions: 0.1% Triton X-100, 50 mM BTP pH 8.5, 37 °C, donor. An excerpt: (§1) coupled PK/LDH NADH assay of GDP release on ManT

Substrate in data set [3]: CCCO[C@H]1O[C@H](CO)[C@@H](O[C@H]2O[C@H](CO)[C@@H](O[C@H]3O[C@H](CO)[C@@H](O[C@H]4O[C@H](CO)[C@@H](O)[C@H](OC)[C@@H]4O)[C@H](OC)[C@@H]3O)[C@H](OC)[C@@H]2O)[C@H](OC)[C@@H]1O
Briefly: coupled PK/LDH NADH assay of GDP release. Format: biochemical, Mycolicibacterium hassiacum. The conditions noted are these: 2.5 mM GDP-Man, 7.5 mM MgCl2, 5 mM NaCl, 0.1% Triton X-100, 50 mM BTP pH 8.5, 37 °C, acceptor.
From the text: as §1

Substrate in data set [4]: CCCO[C@H]1O[C@H](CO)[C@@H](O[C@H]2O[C@H](CO)[C@@H](O[C@H]3O[C@H](CO)[C@@H](O[C@H]4O[C@H](CO)[C@@H](O)[C@H](O)[C@@H]4O)[C@H](O)[C@@H]3O)[C@H](O)[C@@H]2O)[C@H](O)[C@@H]1O
Briefly: coupled PK/LDH NADH assay of GDP release. The conditions noted are these: 5 mM GDP-Man, 7.5 mM MgCl2, 5 mM NaCl, 0.1% Triton X-100, 50 mM BTP pH 8.5, 37 °C, acceptor. It is filed as biochemical, Mycolicibacterium hassiacum.
From the text: as §1

The mark [5] stands for this setting: 3.5 mM sMetMan4, 7.5 mM MgCl2, 5 mM NaCl.
Setting [6] is: 1.5 mM sMetMan4, 7.5 mM MgCl2, 5 mM NaCl.

T1 sequence (K5B7F3 whole entry): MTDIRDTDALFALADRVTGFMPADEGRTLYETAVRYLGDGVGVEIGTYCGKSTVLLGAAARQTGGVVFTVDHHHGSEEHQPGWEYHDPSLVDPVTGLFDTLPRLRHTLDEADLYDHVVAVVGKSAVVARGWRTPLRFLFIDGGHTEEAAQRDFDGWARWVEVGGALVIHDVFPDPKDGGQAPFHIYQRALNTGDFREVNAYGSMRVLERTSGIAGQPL

Take `C[S+](CC[C@H](N)C(=O)O)C[C@H]1O[C@@H](n2cnc3c(N)ncnc32)[C@H](O)[C@@H]1O` (stereo partly drawn) [SAM, S-adenosyl-methionine]: the “SahH-coupled DTNB assay of SAH release” value in data set [1] (1.5 mM oligomannoside acceptor, methyl donor) is “quantified from the S-adenosyl-homocysteine (SAH) released from SAM through a continuous”.

As to `CO[C@@H]1[C@H](O)[C@@H](O[C@H]2[C@H](OC)[C@H](O)C(O)O[C@@H]2CO)O[C@H](CO)[C@H]1O` (stereo partly drawn) [sMetMan2], in data set [1] (1 mM SAM, 1.5 mM acceptor), the “SahH-coupled DTNB assay of SAH release” value is “The activity of MeT1 toward the synthetic substrate sMetMan2 and the two natural substrates”.

B1: ManT (Mycolicibacterium hassiacum DSM 44199; E313A) (protein)
chain: MRIALLSYRSKTHCGGQGVYVRHLSRELAELGHDVEVFSGQPYPEGLDPRVRLTKVPSLDLYREPDPFRIPRPSEIKTSIDLEELLTTWTAGFPEPKTFSLRAARVLAGRRGDFDVVHDNQCLGTGLLQIAKMGFPLVATVHHPITRDREVEVAAARWWRKPLVRRWYGFVEMQKRVARQIPELLTVSSASASDILTDFAVSPEQLHVVPLGVDTKLFQPREGRVRNRIIAIASADVPLKGVSHLLHAVARLRVERDVELQLVTKLEPNGPTEKLIAELGISDIVHTSSGLSDEELAALLASAEVACIPSLYAGFSLPAVEAMASGTPIVASRAGALPEVVGPDGECARLVTPADVDELTAVLGRLLDSPRELRRLGDNGRRRAVEVFSWQSVAAQTVAVYEKAIARVAAC
notes: full length, N-terminal His6 tag (pETM11, tag not removed), synthetic gene, E. coli BL21(DE3); purified with Triton X-100
Take B1: in data set [2] (setting [5]), the Km (commonly the substrate concentration at which the rate is half of its maximum) amounted to 1230 ± 300 µM and the kcat/Km – broadly, the turnover number divided by the Michaelis constant – came to 7 ± 2 M⁻¹ s⁻¹. Further, in data set [3], the Km was determined as 1180 ± 300 µM and the specificity constant (kcat/Km) was 5 ± 1 M⁻¹ s⁻¹.

B2: ManT (Mycolicibacterium hassiacum DSM 44199) (protein)
chain: MRIALLSYRSKTHCGGQGVYVRHLSRELAELGHDVEVFSGQPYPEGLDPRVRLTKVPSLDLYREPDPFRIPRPSEIKTSIDLEELLTTWTAGFPEPKTFSLRAARVLAGRRGDFDVVHDNQCLGTGLLQIAKMGFPLVATVHHPITRDREVEVAAARWWRKPLVRRWYGFVEMQKRVARQIPELLTVSSASASDILTDFAVSPEQLHVVPLGVDTKLFQPREGRVRNRIIAIASADVPLKGVSHLLHAVARLRVERDVELQLVTKLEPNGPTEKLIAELGISDIVHTSSGLSDEELAALLASAEVACIPSLYEGFSLPAVEAMASGTPIVASRAGALPEVVGPDGECARLVTPADVDELTAVLGRLLDSPRELRRLGDNGRRRAVEVFSWQSVAAQTVAVYEKAIARVAAC
notes: as for B1
For the molecule B2, the Km in data set [2] (setting [6]) is 280 ± 50 µM; in data set [4], 2780 ± 450 µM; in data set [3] it was 130 ± 30 µM. For the same molecule, the kcat/Km was determined as 171 ± 33 M⁻¹ s⁻¹ in data set [2] (setting [6]), 9 ± 2 M⁻¹ s⁻¹ in data set [4] and 362 ± 68 M⁻¹ s⁻¹ in data set [3].
